These results are taken from the Immune Epitope Database (IEDB).

Where only a bound is given, the exact number is not on record here.

The target of experiment [1] is HLA-B*15:01. The experiment in a line: IEDB peptide-MHC binding, purified MHC/direct/fluorescence; filed as Kd, often an IC50 or EC50 that approximates it; ≥ and ≤ were set here for values at or beyond the usual limits of such assays.
Experiment [2] has as its target HLA-A*31:01. The description is as above.
For experiment [3], the target named is HLA-A*01:01. The experiment is described as above.
The target in experiment [4] is HLA-A*03:01. The description is as above.
The target in experiment [5] is HLA-B*58:01. Described as above.
The target in experiment [6] is HLA-B*08:01. The experiment is described as above.
Experiment [7] addresses HLA-B*07:02. The experiment is described as above.
Experiment [8] concerns the target HLA-A*11:01. The description is as above.
Experiment [9] concerns the target HLA-A*69:01. Described as above.
Experiment [10] concerns the target HLA-B*40:01. The description is as above.
The target of experiment [11] is HLA-A*24:03. The experiment is described as above.
The target in experiment [12] is HLA-A*02:01. The experiment is described as above.
In experiment [13] the target is HLA-B*44:02. The experiment is described as above.
Experiment [14] addresses HLA-B*27:05. The experiment is described as above.
Experiment [15] deals with HLA-A*26:01. The description is as above.
Experiment [16] addresses HLA-A*02:50. Nature of the experiment: IEDB peptide-MHC binding, purified MHC/competitive/fluorescence; filed as Kd, often an IC50 or EC50 that approximates it; ≥ and ≤ were set here for values at or beyond the usual limits of such assays.
The target of experiment [17] is HLA-B*35:01. Nature of the experiment: IEDB peptide-MHC binding, purified MHC/direct/fluorescence; filed as Kd, often an IC50 or EC50 that approximates it; ≥ and ≤ were set here for values at or beyond the usual limits of such assays.
Experiment [18] addresses HLA-B*57:01. Nature of the experiment: IEDB peptide-MHC binding, purified MHC/competitive/radioactivity; filed as Kd, often an IC50 or EC50 that approximates it; ≥ and ≤ were set here for values at or beyond the usual limits of such assays.
For experiment [19], the target named is HLA-B*58:01. Described as above.
The target in experiment [20] is HLA-B*51:01. Nature of the experiment: IEDB peptide-MHC binding, purified MHC/direct/fluorescence; filed as Kd, often an IC50 or EC50 that approximates it; ≥ and ≤ were set here for values at or beyond the usual limits of such assays. The conditions noted are these: source organism: Tetraodon nigroviridis.
Experiment [21] has as its target HLA-A*30:01. Described as above. The settings on record: source organism: Giardia lamblia ATCC 50803.
For experiment [22], the target named is HLA-B*46:01. The description is as above. The settings on record: source organism: Influenza A virus (A/duck/Mongolia/47/2001(H7N1)).
Experiment [23] deals with HLA-B*18:01. The description is as above. The settings on record: source organism: Influenza A virus (A/duck/Mongolia/47/2001(H7N1)).
For experiment [24], the target named is HLA-A*24:02. Described as above. The conditions noted are these: source organism: Influenza A virus (A/duck/Mongolia/47/2001(H7N1)).
Experiment [25] addresses HLA-B*39:01. Described as above. The conditions noted are these: source organism: Influenza A virus (A/duck/Mongolia/47/2001(H7N1)).
Setting [26] is: source organism: Brucella melitensis.
Where [27] appears, read: source organism: Rickettsia typhi.
The mark [28] stands for this setting: source organism: Salmonella enterica.
[29] abbreviates: source organism: Dengue virus 1 Brazil/97-11/1997.
[30] abbreviates: source organism: Yersinia pestis.
Setting [31] is: source organism: Dengue virus 2 Peru/IQT2913/1996.
Where [32] appears, read: source organism: Vibrio parahaemolyticus.
Where [33] appears, read: source organism: Escherichia coli O157:H7.
Where [34] appears, read: source organism: Giardia lamblia ATCC 50803.
Where [35] appears, read: source organism: Influenza A virus (A/duck/Mongolia/47/2001(H7N1)).
[36] abbreviates: source organism: Camelpox virus M-96.

A word on the Kd: it is a measure of binding affinity in units of concentration. Turning to ALFEDYPGC, the Kd in experiment [1] (setting [26]), in [2] (setting [26]), in [3] (setting [26]), in experiment [4] (setting [26]), in experiment [5] (setting [26]) and in [6] (setting [26]) was not below 20 µM in each case. Moreover, the Kd in experiment [7] (setting [26]) was not below 20 µM; in [8] (setting [26]) it was not below 20 µM; in experiment [9] (setting [26]), not below 20 µM; in experiment [10] (setting [26]), not below 20 µM; in [11] (setting [26]), not below 20 µM; in [12] (setting [26]), 0.354 µM. The Kd is not below 20 µM in experiment [13] (setting [26]), not below 20 µM in experiment [14] (setting [26]), not below 20 µM in experiment [15] (setting [26]) and 6.2 nM in experiment [16] (setting [26]).
Take APILVVSGI: the Kd in experiment [1] (setting [27]), in experiment [2] (setting [27]), in [3] (setting [27]), in experiment [4] (setting [27]), in experiment [5] (setting [27]) and in experiment [6] (setting [27]) was not below 20 µM each time. For the same sequence, the Kd in experiment [7] (setting [27]) is 0.157 µM; in [8] (setting [27]), not below 20 µM; in experiment [9] (setting [27]) it was not below 20 µM; in [10] (setting [27]) it was not below 20 µM; in experiment [11] (setting [27]) it was 14.8 µM; in [12] (setting [27]) it was not below 20 µM. Also, the Kd in experiment [13] (setting [27]) was not below 20 µM; in experiment [14] (setting [27]) it was not below 20 µM; in experiment [17] (setting [27]) it was 289 nM; in experiment [15] (setting [27]), not below 20 µM.
Turning to ATGDYVAFV, the Kd amounted to 0.0158 µM in experiment [9] (setting [28]), 0.067 µM in [12] (setting [28]) and 0.9 nM in experiment [16] (source organism: Salmonella enterica subsp. enterica serovar Typhi).
For the sequence ATLFVWYFW, the Kd in experiment [18] (setting [29]) stood at 115 nM; in experiment [19] (setting [29]), 200 nM.
With GMFIIFIPI, the Kd was determined as 5.42 µM in experiment [9] (setting [30]), 8.84 µM in [12] (setting [30]) and 395 nM in experiment [16] (source organism: Yersinia pestis Nepal516).
On to LAIPVTMTL, for which the Kd in [19] (source organism: Dengue virus 4 Philippines/H241/1956) is 1.34 nM.
For the sequence LGSQEGAMHT, in experiment [19] (source organism: Dengue virus 2 Jamaica/1409/1983), the Kd came out at 548 nM.
For the sequence LPAQGLIEF, the Kd in experiment [20] was 11.3 µM.
In the case of LTSKELMMTT, the Kd in experiment [18] (setting [31]) came to 246 nM; in experiment [19] (setting [31]) it was 422 nM.
As for MSSAMSMMH, the Kd is 2.58 µM in [1] (setting [32]); 6.94 µM in [3] (setting [32]); 0.0661 µM in [4] (setting [32]); 0.624 µM in [5] (setting [32]); not below 20 µM in experiment [6] (setting [32]); not below 20 µM in experiment [7] (setting [32]). In addition, the Kd in experiment [8] (setting [32]) is 0.154 µM; in experiment [9] (setting [32]), not below 20 µM; in experiment [10] (setting [32]), not below 20 µM; in experiment [11] (setting [32]), 5.11 µM; in experiment [12] (setting [32]) it was not below 20 µM; in experiment [13] (setting [32]) it was not below 20 µM. Moreover, the Kd in [14] (setting [32]) was not below 20 µM; in [17] (setting [32]) it was 72.8 nM; in [15] (setting [32]), not below 20 µM.
As for RPPRRGDKF, the Kd in experiment [1] (setting [33]) was not below 20 µM; in experiment [2] (setting [33]) it was not below 20 µM; in experiment [3] (setting [33]), not below 20 µM; in experiment [4] (setting [33]), not below 20 µM; in [5] (setting [33]), not below 20 µM; in [7] (setting [33]), 0.223 µM. Besides, the Kd in [8] (setting [33]), in experiment [9] (setting [33]), in [10] (setting [33]), in experiment [12] (setting [33]), in experiment [13] (setting [33]) and in experiment [14] (setting [33]) was not below 20 µM each time. In addition, the values for the Kd in experiment [17] (setting [33]) and in experiment [15] (setting [33]) were 1370 nM and not below 20 µM, respectively.
Consider SVKERGPAY, for which the Kd in experiment [1] (setting [34]) is 0.179 µM; in experiment [2] (setting [34]), not below 20 µM; in [3] (setting [34]), not below 20 µM; in experiment [4] (setting [34]), 0.61 µM; in experiment [5] (setting [34]), not below 20 µM; in experiment [6] (setting [34]) it was not below 20 µM. Also, the Kd in [7] (setting [34]) was not below 20 µM; in experiment [8] (setting [34]), 0.105 µM; in experiment [9] (setting [34]) it was not below 20 µM; in [10] (setting [34]), not below 20 µM; in experiment [12] (setting [34]), not below 20 µM; in [13] (setting [34]) it was not below 20 µM. For the same sequence, the Kd is 35.4 nM in experiment [21], not below 20 µM in experiment [14] (setting [34]), 39.4 nM in experiment [17] (setting [34]) and 0.0246 µM in experiment [15] (setting [34]).
Consider THFQRKRRV, for which the Kd in experiment [22], in experiment [1] (setting [35]), in [2] (setting [35]), in experiment [3] (setting [35]), in experiment [23] and in [24] was not below 20 µM in each case. In addition, the Kd in experiment [4] (setting [35]), in experiment [5] (setting [35]), in experiment [6] (setting [35]), in experiment [7] (setting [35]), in experiment [8] (setting [35]) and in experiment [10] (setting [35]) was not below 20 µM in each case. Also, the equilibrium dissociation constant (Kd) in experiment [12] (setting [35]), in [13] (setting [35]), in experiment [14] (setting [35]), in [15] (source organism: Influenza A virus(A/swine/Henan/3/2004(H9N2))) and in experiment [25] was not below 20 µM each time.
As to VMCIQMKYV, the Kd in experiment [1] (setting [36]), in [2] (setting [36]), in experiment [3] (setting [36]), in experiment [4] (setting [36]), in experiment [5] (setting [36]) and in experiment [6] (setting [36]) was not below 20 µM in each case. For the same sequence, the Kd in experiment [7] (setting [36]), in experiment [8] (setting [36]), in [10] (setting [36]), in [11] (setting [36]), in [12] (setting [36]) and in [13] (setting [36]) was not below 20 µM throughout. Also, the Kd in [14] (setting [36]) was not below 20 µM; in [15] (setting [36]), not below 20 µM; in experiment [16] (source organism: Variola virus), 18.1 nM.
In the case of WMDMWESPM, the results for the Kd in experiment [12] (setting [33]) and in [16] (source organism: Escherichia coli O157:H7 str. Sakai) were 1.01 µM and 0.4 nM, respectively.
